For assay [1], the target named is SARS-CoV-2 S B.1.1.7 on CHO cells (SARS-CoV-2) (UniProt P0DTC2).
The target in assay [2] is SARS-CoV-2 S B.1.351 on CHO cells (SARS-CoV-2) (UniProt P0DTC2).

For “LY-CoV1404 (bebtelovimab), full-length human IgG1 mAb (antibody)”, in assay [1], the VSV pseudovirus neutralisation IC50 was 1 ng/mL, the VSV pseudovirus neutralisation IC90 is 9 ng/mL, the lentiviral pseudovirus neutralisation IC50 turned out to be 4 ng/mL and the lentiviral pseudovirus neutralisation IC90 was 11 ng/mL. Moreover, in assay [2], the VSV pseudovirus neutralisation IC50 stood at 2 ng/mL, the VSV pseudovirus neutralisation IC90 stood at 9 ng/mL, the lentiviral pseudovirus neutralisation IC50 was 3 ng/mL and the lentiviral pseudovirus neutralisation IC90 was 9 ng/mL.

The values are drawn from PMC9035363.
